Source: paper PMC8932917

Target: Biotinylated FcγRIIIa (human) (UniProt P08637)
Assay: BLI

Chain of UniProt P08637 (P08637 21-186): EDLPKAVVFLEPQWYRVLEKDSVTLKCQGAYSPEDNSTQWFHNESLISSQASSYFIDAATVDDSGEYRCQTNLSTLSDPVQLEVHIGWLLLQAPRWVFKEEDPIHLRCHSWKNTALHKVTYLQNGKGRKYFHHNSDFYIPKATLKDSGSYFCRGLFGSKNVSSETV

Substance: Mogamulizumab, anti-CCR4 humanized IgG1 (antibody)
- fold larger kon than Ada: 3.5 fold
- fold larger kon than Rtx: 4 fold
- fold lower KD than Ada: > 20 fold
- fold lower KD than Rtx: > 20 fold
- fold smaller koff than Ada: 6 fold
- fold smaller koff than Rtx: 5 fold
